From the supplement of paper PMC9428881 come the findings set out here.

± gives the standard error.

The nature of the series: background-corrected fluorescence of 3'-dye-labeled ssDNA relative to brightest sequence (3'-GCGCG) (fraction); higher = brighter dye fluorescence (less quenching). Summed up:
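By light-directed phosphoramidite synthesis, single-stranded DNA ending in a 3' Cy3 or Cy5 dye beside each of 1024 permuted pentamers was built on glass slides. Scanning at 532 or 635 nm took place before and after overnight ethylenediamine/ethanol deprotection. Data are means of 10 features per array over at least 3 syntheses. Fluorescence is corrected for unlabeled-oligo background and scaled to the brightest sequence.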

Consider “TTTTTTCATGATCAGCATCATTTTTTTTTTTTTTTGCGTG [GTGCG]”, for which the background-corrected fluorescence was 0.577 ± 0.012 (dye: Cy3 (3' terminal)) and 0.439 ± 0.023 (dye: Cy5 (3' terminal)).

Consider “TTTTTTCATGATCAGCATGATTTTTTTTTTTTTTTGCGTC [CTGCG]”, for which the background-corrected fluorescence by setting is: (dye: Cy3 (3' terminal)) 0.481 ± 0.033; (dye: Cy5 (3' terminal)) 0.366 ± 0.028.

As to “TTTTTTCATGATCAGCATGCTTTTTTTTTTTTTTTGCGTA [ATGCG]”, the background-corrected fluorescence was 0.604 ± 0.026 (dye: Cy3 (3' terminal)) and 0.466 ± 0.026 (dye: Cy5 (3' terminal)).

Turning to “TTTTTTCATGATCATCAGCATTTTTTTTTTTTTTTGCGGT [TGGCG]”, the background-corrected fluorescence reads like this: (dye: Cy3 (3' terminal)) 0.743 ± 0.026; (dye: Cy5 (3' terminal)) 0.566 ± 0.036.

As to “TTTTTTCATGATCATCATCATTTTTTTTTTTTTTTGCGGG [GGGCG]”, the background-corrected fluorescence by setting is: (dye: Cy3 (3' terminal)) 0.701 ± 0.013; (dye: Cy5 (3' terminal)) 0.563 ± 0.045.

As for “TTTTTTCATGATCATCATGATTTTTTTTTTTTTTTGCGGC [CGGCG]”, the background-corrected fluorescence runs as follows: (dye: Cy3 (3' terminal)) 0.658 ± 0.028; (dye: Cy5 (3' terminal)) 0.506 ± 0.029.

With “TTTTTTCATGATCATCATGCTTTTTTTTTTTTTTTGCGGA [AGGCG]”, the background-corrected fluorescence was found to be 0.786 ± 0.033 (dye: Cy3 (3' terminal)) and 0.689 ± 0.033 (dye: Cy5 (3' terminal)).

Turning to “TTTTTTCATGATCATGAGCATTTTTTTTTTTTTTTGCGCT [TCGCG]”, the background-corrected fluorescence is, setting by setting: (dye: Cy3 (3' terminal)) 0.623 ± 0.022; (dye: Cy5 (3' terminal)) 0.485 ± 0.025.

In turn, “TTTTTTCATGATCATGATCATTTTTTTTTTTTTTTGCGCG” came in with a background-corrected fluorescence (dye: Cy3 (3' terminal)) of 1 ± 0.024 and a background-corrected fluorescence (dye: Cy5 (3' terminal)) of 1 ± 0.035.

Regarding “TTTTTTCATGATCATGATGATTTTTTTTTTTTTTTGCGCC [CCGCG]”, the background-corrected fluorescence is 0.505 ± 0.024 (dye: Cy3 (3' terminal)) and 0.4 ± 0.041 (dye: Cy5 (3' terminal)).

As for “TTTTTTCATGATCATGATGCTTTTTTTTTTTTTTTGCGCA [ACGCG]”, the background-corrected fluorescence came out at 0.714 ± 0.027 (dye: Cy3 (3' terminal)) and 0.657 ± 0.043 (dye: Cy5 (3' terminal)).

As to “TTTTTTCATGATCATGCGCATTTTTTTTTTTTTTTGCGAT [TAGCG]”, the background-corrected fluorescence by setting is: (dye: Cy3 (3' terminal)) 0.5348 ± 0.0049; (dye: Cy5 (3' terminal)) 0.474 ± 0.037.

As to “TTTTTTCATGATCATGCTCATTTTTTTTTTTTTTTGCGAG [GAGCG]”, the background-corrected fluorescence by setting is: (dye: Cy3 (3' terminal)) 0.608 ± 0.03; (dye: Cy5 (3' terminal)) 0.51 ± 0.085.

For “TTTTTTCATGATCATGCTGATTTTTTTTTTTTTTTGCGAC [CAGCG]”, the background-corrected fluorescence is, setting by setting: (dye: Cy3 (3' terminal)) 0.518 ± 0.026; (dye: Cy5 (3' terminal)) 0.394 ± 0.023.

As to “TTTTTTCATGATCATGCTGCTTTTTTTTTTTTTTTGCGAA [AAGCG]”, the background-corrected fluorescence (dye: Cy3 (3' terminal)) is 0.666 ± 0.028 and the background-corrected fluorescence (dye: Cy5 (3' terminal)) is 0.525 ± 0.028.

As to “TTTTTTCATGATGAGCAGCATTTTTTTTTTTTTTTGCCTT [TTCCG]”, the background-corrected fluorescence came to 0.489 ± 0.031 (dye: Cy3 (3' terminal)) and 0.367 ± 0.035 (dye: Cy5 (3' terminal)).

For the sequence “TTTTTTCATGATGAGCATCATTTTTTTTTTTTTTTGCCTG [GTCCG]”, the background-corrected fluorescence runs as follows: (dye: Cy3 (3' terminal)) 0.481 ± 0.028; (dye: Cy5 (3' terminal)) 0.35 ± 0.021.

For the sequence “TTTTTTCATGATGAGCATGATTTTTTTTTTTTTTTGCCTC [CTCCG]”, the background-corrected fluorescence was determined as 0.354 ± 0.016 (dye: Cy3 (3' terminal)) and 0.286 ± 0.06 (dye: Cy5 (3' terminal)).

Regarding “TTTTTTCATGATGAGCATGCTTTTTTTTTTTTTTTGCCTA [ATCCG]”, the background-corrected fluorescence worked out at 0.493 ± 0.016 (dye: Cy3 (3' terminal)) and 0.366 ± 0.039 (dye: Cy5 (3' terminal)).

As for “TTTTTTCATGATGATCAGCATTTTTTTTTTTTTTTGCCGT”, the background-corrected fluorescence worked out at 0.651 ± 0.025 (dye: Cy3 (3' terminal)) and 0.487 ± 0.022 (dye: Cy5 (3' terminal)).

Consider “TTTTTTCATGATGATCATCATTTTTTTTTTTTTTTGCCGG [GGCCG]”, for which the background-corrected fluorescence (dye: Cy3 (3' terminal)) is 0.665 ± 0.025 and the background-corrected fluorescence (dye: Cy5 (3' terminal)) was 0.564 ± 0.072.

Consider “TTTTTTCATGATGATCATGATTTTTTTTTTTTTTTGCCGC [CGCCG]”, for which the background-corrected fluorescence is, setting by setting: (dye: Cy3 (3' terminal)) 0.549 ± 0.017; (dye: Cy5 (3' terminal)) 0.434 ± 0.033.

“TTTTTTCATGATGATCATGCTTTTTTTTTTTTTTTGCCGA [AGCCG]”: the background-corrected fluorescence by setting is: (dye: Cy3 (3' terminal)) 0.621 ± 0.024; (dye: Cy5 (3' terminal)) 0.547 ± 0.034.

“TTTTTTCATGATGATGAGCATTTTTTTTTTTTTTTGCCCT [TCCCG]”: the background-corrected fluorescence reads like this: (dye: Cy3 (3' terminal)) 0.449 ± 0.021; (dye: Cy5 (3' terminal)) 0.329 ± 0.019.

Turning to “TTTTTTCATGATGATGATCATTTTTTTTTTTTTTTGCCCG”, the background-corrected fluorescence (dye: Cy3 (3' terminal)) is 0.488 ± 0.0067 and the background-corrected fluorescence (dye: Cy5 (3' terminal)) came to 0.394 ± 0.045.

“TTTTTTCATGATGATGATGATTTTTTTTTTTTTTTGCCCC [CCCCG]”: the background-corrected fluorescence reads like this: (dye: Cy3 (3' terminal)) 0.32 ± 0.038; (dye: Cy5 (3' terminal)) 0.272 ± 0.012.

On to “TTTTTTCATGATGATGATGCTTTTTTTTTTTTTTTGCCCA [ACCCG]”, for which the background-corrected fluorescence by setting is: (dye: Cy3 (3' terminal)) 0.479 ± 0.026; (dye: Cy5 (3' terminal)) 0.389 ± 0.058.

For the sequence “TTTTTTCATGATGATGCGCATTTTTTTTTTTTTTTGCCAT [TACCG]”, the background-corrected fluorescence is, setting by setting: (dye: Cy3 (3' terminal)) 0.516 ± 0.048; (dye: Cy5 (3' terminal)) 0.404 ± 0.029.

For the sequence “TTTTTTCATGATGATGCTCATTTTTTTTTTTTTTTGCCAG [GACCG]”, the background-corrected fluorescence by setting is: (dye: Cy3 (3' terminal)) 0.519 ± 0.015; (dye: Cy5 (3' terminal)) 0.384 ± 0.031.
